Measurements published in US11618906B2, “Hydroxylation techniques” (HYPHA DISCOVERY LTD., priority 2018, dated 2023).
Where a chain is given by its changes, count along the chain named. Names and notes keep the numbering of the source.

B1: aluC09M35: cytochrome P450 aluC09 mutant T291P; amino acid sequence SEQ ID NO: 52 (protein, listed as Amycolatopsis lurida)
chain: MTDVEETTATLPLARKCPFSPPPEYERLRRESPVSRVGLPSGQTAWALTRLEDIREMLSSPHFSSDRQSPSFPLMVARQIRREDKPFRPSLIAMDPPEHSRARRDVVGEFTVKRMKALQPRIQQIVDEHLDALLAGPKPADLVQALSLPVPSLVICELLGVPYSDHEFFQSCSSRMLSREVTAEERMTAFEQLENYLDELVTKKEANATEDDLLGRQILKQRETGEADHGELVGLAFLLLIAGHETTANMISLGTVTLLENPDQLAKIKADPGKTLAAIEELLRVFTIAEPATSRFATADVEIGGTLIRAGEGVVGLSNAGNHDPDGFENPDTFDIERGARHHVAFGFGVHQCLGQNLARLELQIVFDTLFRRVPGLRIAVPVDELPFKHDSTIYGLHALPVTW
B2: aluC09M39: cytochrome P450 aluC09 mutant T291K; amino acid sequence SEQ ID NO: 68 (protein, listed as Amycolatopsis lurida)
chain: B1 chain with P291K

Legend:
Type in all cases: biochemical
[1] = Metabolism of tofacitinib by P450 aluC09 and mutants; details: percent of substrate being converted; 0.125 mg/ml, 27° C., 16-20 hours; [CYP] per enzyme as in Table 8
Outline: (§1)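 In these assays each P450 aluC09 mutant, supported by ferredoxin and ferredoxin reductase, turns over substrate (0.125 mg/ml) in 50 mM potassium phosphate pH 7.4 containing 5 mM MgCl2 and an NADP/G6P/G6PDH regeneration system. Incubation lasts 16-20 hours at 27° C with shaking, and acetonitrile-extracted samples are analysed for conversion by UPLC-MS.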

[2] = O-demethylation of indomethacin catalysed by cytochrome P450 aluC09 and mutants; details: % by UV peak area at 275 nm; 0.125 mg/ml substrate, 27° C., 16-20 hours
Outline: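 Conversion was quantified by UPLC-UV/MS after acetonitrile extraction of 16-20 h, 27° C. shaken reactions. These contained 0.125 mg/ml substrate, mutant P450 with partner ferredoxin and reductase, 1 mM NADP plus 5 mM G6P and 2 U/ml G6PDH, in pH 7.4 phosphate with 5 mM MgCl2.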

[3] = Metabolism of ruxolitinib by P450 aluC09 and mutants; details: percent of substrate being converted; 0.125 mg/ml, 27° C., 16-20 hours; [CYP] per enzyme as in Table 8
Outline: as §1

[4] = Metabolism of ritonavir by P450 aluC09 and mutants; details: percent of substrate being converted; 0.125 mg/ml, 27° C., 16-20 hours; [CYP] per enzyme as in Table 8
Outline: as §1

[5] = Metabolism of bosentan by P450 aluC09 and mutants; details: percent of substrate being converted; 0.125 mg/ml, 27° C., 16-20 hours; [CYP] per enzyme as in Table 8
Outline: as §1

[6] = Hydroxylation of diclofenac catalysed by cytochrome P450 aluC09 and mutants (UPLC-PDA-MS); details: for 4′,5-dihydroxy-diclofenac 1.38 mins / 4′-hydroxy-diclofenac (1) 1.62 mins / 5-hydroxy-diclofenac (2) 1.58 mins / Diclofenac (Substrate) 1.81 mins: % by UV peak area at 275 nm, 0.125 mg/ml substrate, 27° C., 16-20 hours; for Hydroxylated Ratio hydroxy 1:hydroxy 2: ratio of UV peak areas at 275nm
Outline: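 Conversion of diclofenac (0.125 mg/ml) to hydroxy metabolites measured by UPLC with UV and MS detection, identities confirmed by authentic samples. Reactions used P450 aluC09 variants with ferredoxin aluF03, reductase SCF15A and an NADP/G6P/G6PDH recycling system, pH 7.4 phosphate, 27° C, 16-20 hours.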

[7] = Metabolism of celecoxib by P450 aluC09 and mutants; details: percent of substrate being converted; 0.125 mg/ml, 27° C., 16-20 hours; [CYP] per enzyme as in Table 8
Outline: as §1

[8] = Hydroxylation of aceclofenac catalysed by cytochrome P450 aluC09 and mutants; details: for Aceclofenac (Substrate) (1.80 mins) / Dihydroxy-Aceclofenac (1.42 mins) / Hydroxy-Aceclofenac (1) (1.64 min) / Hydroxy-Aceclofenac (2) (1.60 min): % by UV peak area at 275 nm, 0.125 mg/ml substrate, 27° C., 16-20 hours; for Hydroxylated Ratio 2:1: aceclofenac, ratio of UV peak areas at 275 nm
Outline: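 Conversion was assessed by UPLC-MS (UV and MS detection) after acetonitrile extraction of reactions run 16-20 h at 27° C, shaking. Reactions contained substrate at 0.125 mg/ml, P450 mutant plus ferredoxin and reductase partners, 1 mM NADP with glucose-6-phosphate regeneration, in phosphate buffer pH 7.4.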

[9] = Metabolism of 4-pyrrolidylacetophenone by P450 aluC09 and mutants; details: percent of substrate being converted; 0.125 mg/ml, 27° C., 16-20 hours; [CYP] per enzyme as in Table 8
Outline: as §1

[10] = Hydroxylation / de-N-ethylation of napropamide catalysed by cytochrome P450 aluC09 and mutants; details: for Desethyl Napropamide (1.62 min) / Desethyl-hydroxy-Napropamide (1.41 min) / Hydroxy-Napropamide (1) (1.53 min) / Hydroxy-Napropamide (2), (1.52 min) / M-2Da (unidentified) (1.89 min) / Napropamide (substrate): % by UV peak area at 275 nm, 0.125 mg/ml substrate, 27° C., 16-20 hours; for Hydroxylated Ratio 2:1: napropamide, ratio of UV peak areas
Outline: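 Conversion of napropamide (0.125 mg/ml) to hydroxylated and de-ethylated metabolites was measured by UPLC-MS after acetonitrile extraction. Reactions ran 16-20 h at 27° C in pH 7.4 potassium phosphate (50 mM) with 5 mM MgCl2, 1 mM NADP, 5 mM G6P and 2 UN/ml G6PDH. Enzymes were lyophilised P450 aluC09 variants, ferredoxin aluF03 and ferredoxin reductase SCF15A.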

[11] = Metabolism of epothilone B by P450 aluC09 and mutants; details: percent of substrate being converted; 0.125 mg/ml, 27° C., 16-20 hours; [CYP] per enzyme as in Table 8
Outline: as §1

[12] = Metabolism of valsartan by P450 aluC09 and mutants; details: percent of substrate being converted; 0.125 mg/ml, 27° C., 16-20 hours; [CYP] per enzyme as in Table 8
Outline: as §1

[13] = Metabolism of buparvaquone by P450 aluC09 and mutants; details: percent of substrate being converted; 0.125 mg/ml, 27° C., 16-20 hours; [CYP] per enzyme as in Table 8
Description: Lyophilised material of mutants of CYP450aluC09, ferredoxinaluF03 and ferredoxin reductaseSCF15A was made as described in examples 3 and 4 and suspended in water (0.5 mL per vial) and biocatalysis was performed at 27° C. in the following conditions: 50 mM potassium phosphate pH 7.4, 5 mM MgCl2, 0.125 mg/ml substrate compound such as diclofenac (Sigma-Aldrich, UK), Aceclofenac (Tokyo Chemical Industry UK Ltd, UK), Indomethacin (Sigma-Aldrich, UK), Flufenamic acid (Sigma-Aldrich, UK), Napropamide (Sigma-Aldrich, UK), celecoxib (LC Laboratories, USA), valsartan (Tokyo Chemical Industry UK Ltd, UK), ruxolitinib (LC Laboratories, USA), 4-pyrrolidylacetophenone (Sigma-Aldrich, UK), tofacitinib (LC Laboratories, USA), bosentan (CarboSynth Ltd, UK), buparvaquone (MedChemtronica, Sweden), BIRB796 (Stratech Scientific Limited, UK), epothilone B (LC Laboratories, USA), ritonavir (Tokyo Chemical Industry UK Ltd, UK) or tivantinib (MedChemtronica, Sweden), P450AluC09 (concentration as in Table 8), 5 mM G6P, 1 mM NADP, 2 UN/ml G6PDH in a final volume of 100 μL. After 16-20 hours at 200 rpm (5 cm orbital shaker, Kuhner AG, Switzerland), reactions were extracted with an equal volume of acetonitrile, centrifuged to remove precipitated proteins and conversion assessed by UPLC-MS analysis.
However, of particular note when considering P450 concentration are the results for mutants M12, M20 and M34, as well as the deleterious impact on the range of substrate utility in mutants M39 and M40.

[14] = Metabolism of BIRB796 by P450 aluC09 and mutants; details: percent of substrate being converted; 0.125 mg/ml, 27° C., 16-20 hours; [CYP] per enzyme as in Table 8
Outline: as §1

[15] = Metabolism of tivantinib by P450 aluC09 and mutants; details: percent of substrate being converted; 0.125 mg/ml, 27° C., 16-20 hours; [CYP] per enzyme as in Table 8
Outline: as §1

[16] = Hydroxylation of flufenamic acid catalysed by cytochrome P450 aluC09 and mutants; details: for Flufenamic Acid (Substrate) 1.93 mins / Hydroxy-Flufenamic Acid (1) 1.69 mins / Hydroxy-Flufenamic Acid (2) 1.65 mins: % by UV peak area at 275 nm, 0.125 mg/ml substrate, 27° C., 16-20 hours; for Hydroxylated Ratio 1:2: flufenamic acid, ratio of UV peak areas at 275 nm
Outline: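 Conversion measured by UPLC-MS (UV and MS) after acetonitrile extraction, following 16-20 h shaking at 27° C. Reaction: 0.125 mg/ml substrate, P450 mutant plus ferredoxin aluF03 and reductase SCF15A, 5 mM G6P, 1 mM NADP, 2 U/ml G6PDH, pH 7.4 phosphate with 5 mM MgCl2.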

Molecule | % conversions (avg) Tofacitinib [1] [%] | Indomethacin (1.74 mins) [2] [%] | O-demethyl-Indomethacin (1.52 mins) [2] [%] | % conversions (avg) Ruxolitinib [3] [%] | % conversions (avg) Ritonavir [4] [%] | % conversions (avg) Bosentan [5] [%] | 4′,5-dihydroxy-diclofenac 1.38 mins [6] [%] | 4′-hydroxy-diclofenac (1) 1.62 mins [6] [%] | 5-hydroxy-diclofenac (2) 1.58 mins [6] [%] | Diclofenac (Substrate) 1.81 mins [6] [%] | Hydroxylated Ratio hydroxy 1:hydroxy 2 ([6]; diclofenac) | % conversions (avg) Celecoxib [7] [%] | Aceclofenac (Substrate) (1.80 mins) [8] [%] | Dihydroxy-Aceclofenac (1.42 mins) [8] [%] | Hydroxy-Aceclofenac (1) (1.64 min) [8] [%] | Hydroxy-Aceclofenac (2) (1.60 min) [8] [%] | Hydroxylated Ratio 2:1 [8] | % conversions (avg) 4-pyrrolidylacetophenone [9] [%] | Desethyl Napropamide (1.62 min) [10] [%] | Desethyl-hydroxy-Napropamide (1.41 min) [10] [%] | other results
B1 | 1.1 | 94.1 | 5.9 | 34.1 | 37.6 | 98.4 | 0.9 | 41.3 | 9.9 | 48.2 | 4.2 | 1.5 | 21.8 | 26.6 | 12.2 | 39.4 | 3.2 | 3.3 | 36.6 | 4.8 | regioselectivity of hydroxylation (product ratio 4′-hydroxydiclofenac : 5-hydroxydiclofenac) ([6]; diclofenac): over four-fold; Hydroxy-Napropamide (1) (1.53 min) [10]: 1.2%; Hydroxy-Napropamide (2), (1.52 min) [10]: 3.6%; M-2Da (unidentified) (1.89 min) [10]: 5.3%; Napropamide (substrate) [10]: 51.0%; Hydroxylated Ratio 2:1 [10]: 3.0; % conversions (avg) Epothilone B [11]: 20.6%; % conversions (avg) Valsartan [12]: 21.8%; % conversions (avg) Buparvaquone [13]: 7.1%; % conversions (avg) BIRB796 [14]: 4.6%; % conversions (avg) Tivantinib [15]: 35.7%; Flufenamic Acid (Substrate) 1.93 mins [16]: 95.8%; Hydroxy-Flufenamic Acid (1) 1.69 mins [16]: 2.7%; Hydroxy-Flufenamic Acid (2) 1.65 mins [16]: 1.5%; Hydroxylated Ratio 1:2 [16]: 1.9
B2 | 0 | 93.0 | 7.0 | 5.3 | 39.2 | 85.1 | 2.1 | 42.8 | 14.6 | 41.4 | 2.9 | 0 | 63.7 | 4.4 | 18.6 | 13.3 | 0.7 | 1.5 | 16.3 | 0.7 | Hydroxy-Napropamide (1) (1.53 min) [10]: 1.4%; Hydroxy-Napropamide (2), (1.52 min) [10]: 1.6%; M-2Da (unidentified) (1.89 min) [10]: 2.3%; Napropamide (substrate) [10]: 78.2%; Hydroxylated Ratio 2:1 [10]: 1.2; % conversions (avg) Epothilone B [11]: 1.6%; % conversions (avg) Valsartan [12]: 7.8%; % conversions (avg) Buparvaquone [13]: 0%; % conversions (avg) BIRB796 [14]: 0%; % conversions (avg) Tivantinib [15]: 7.2%; Flufenamic Acid (Substrate) 1.93 mins [16]: 94.4%; Hydroxy-Flufenamic Acid (1) 1.69 mins [16]: 5.1%; Hydroxy-Flufenamic Acid (2) 1.65 mins [16]: 0.5%; Hydroxylated Ratio 1:2 [16]: 4.9; production of hydroxyl-flufenamic acid 2 ([16]; peak at 1.65 minutes, compared to wild-type): no detectable production
